US20080279864A1
Where two headings read alike, the source gives them in different places. Each block holds one substance with its values, some of them ahead of it.

Legend:
I-IIC-CFP (rabbit) = I-IIC-CFP (rabbit) (UniProt P15381); assay: FRET two-hybrid, relative dissociation constant against the NTB-CFP/I-IIB-YFP pair
[1] = molecular target: I-IIB(357-482)-pGBKT7 (I-II loop of α1B fused to the GAL4 binding domain) (human); assay: yeast two-hybrid auto-activation control (empty pGADT7), filter lift β-galactosidase assay, % of colonies turning blue, mean ± SEM
[2] = molecular target: NTB(56-95)-pGBKT7 (human); assay: as above
NTB(1-44)-pGBKT7 (human) [3] = assay: as above
[4] = molecular target: I-IIB(357-482)-pGBKT7 (I-II loop of α1B fused to the GAL4 binding domain) (human); assay: yeast two-hybrid auto-activation control (empty pGADT7), % of colonies surviving on high stringency plates, mean ± SEM
[5] = molecular target: I-IIC(436-554)-pGBKT7 (I-II loop of α1C fused to the GAL4 binding domain) (rabbit); assay: as above
[6] = molecular target: NTB(56-95)-pGBKT7 (human); assay: as above
NTB(1-44)-pGBKT7 (human) [7] = assay: as above
I-IIB-YFP (human) [8] = molecular target: I-IIB-YFP (human) (UniProt Q00975); assay: FRET two-hybrid, relative dissociation constant against the NTB-CFP/I-IIB-YFP pair
I-IIB-YFP (human) [9] = molecular target: I-IIB-YFP (human) (UniProt Q00975); assay: as above; remark: listed apart in the source
I-IIC-YFP (rabbit) = I-IIC-YFP (rabbit) (UniProt P15381); assay: as above
[10] = molecular target: N-type (CaV2.2) Ca2+ channel (α1B with β2a and α2δ) in HEK293 cells (human; rat) (UniProt Q00975); assay: cell-based or functional assay
N-type (CaV2.2) Ca2+ channel (α1B with β2a and α2δ) in HEK293 cells (human; rat), sequence (Q00975 whole entry, stated change not applied, chain 1 of 3, other chains not shown): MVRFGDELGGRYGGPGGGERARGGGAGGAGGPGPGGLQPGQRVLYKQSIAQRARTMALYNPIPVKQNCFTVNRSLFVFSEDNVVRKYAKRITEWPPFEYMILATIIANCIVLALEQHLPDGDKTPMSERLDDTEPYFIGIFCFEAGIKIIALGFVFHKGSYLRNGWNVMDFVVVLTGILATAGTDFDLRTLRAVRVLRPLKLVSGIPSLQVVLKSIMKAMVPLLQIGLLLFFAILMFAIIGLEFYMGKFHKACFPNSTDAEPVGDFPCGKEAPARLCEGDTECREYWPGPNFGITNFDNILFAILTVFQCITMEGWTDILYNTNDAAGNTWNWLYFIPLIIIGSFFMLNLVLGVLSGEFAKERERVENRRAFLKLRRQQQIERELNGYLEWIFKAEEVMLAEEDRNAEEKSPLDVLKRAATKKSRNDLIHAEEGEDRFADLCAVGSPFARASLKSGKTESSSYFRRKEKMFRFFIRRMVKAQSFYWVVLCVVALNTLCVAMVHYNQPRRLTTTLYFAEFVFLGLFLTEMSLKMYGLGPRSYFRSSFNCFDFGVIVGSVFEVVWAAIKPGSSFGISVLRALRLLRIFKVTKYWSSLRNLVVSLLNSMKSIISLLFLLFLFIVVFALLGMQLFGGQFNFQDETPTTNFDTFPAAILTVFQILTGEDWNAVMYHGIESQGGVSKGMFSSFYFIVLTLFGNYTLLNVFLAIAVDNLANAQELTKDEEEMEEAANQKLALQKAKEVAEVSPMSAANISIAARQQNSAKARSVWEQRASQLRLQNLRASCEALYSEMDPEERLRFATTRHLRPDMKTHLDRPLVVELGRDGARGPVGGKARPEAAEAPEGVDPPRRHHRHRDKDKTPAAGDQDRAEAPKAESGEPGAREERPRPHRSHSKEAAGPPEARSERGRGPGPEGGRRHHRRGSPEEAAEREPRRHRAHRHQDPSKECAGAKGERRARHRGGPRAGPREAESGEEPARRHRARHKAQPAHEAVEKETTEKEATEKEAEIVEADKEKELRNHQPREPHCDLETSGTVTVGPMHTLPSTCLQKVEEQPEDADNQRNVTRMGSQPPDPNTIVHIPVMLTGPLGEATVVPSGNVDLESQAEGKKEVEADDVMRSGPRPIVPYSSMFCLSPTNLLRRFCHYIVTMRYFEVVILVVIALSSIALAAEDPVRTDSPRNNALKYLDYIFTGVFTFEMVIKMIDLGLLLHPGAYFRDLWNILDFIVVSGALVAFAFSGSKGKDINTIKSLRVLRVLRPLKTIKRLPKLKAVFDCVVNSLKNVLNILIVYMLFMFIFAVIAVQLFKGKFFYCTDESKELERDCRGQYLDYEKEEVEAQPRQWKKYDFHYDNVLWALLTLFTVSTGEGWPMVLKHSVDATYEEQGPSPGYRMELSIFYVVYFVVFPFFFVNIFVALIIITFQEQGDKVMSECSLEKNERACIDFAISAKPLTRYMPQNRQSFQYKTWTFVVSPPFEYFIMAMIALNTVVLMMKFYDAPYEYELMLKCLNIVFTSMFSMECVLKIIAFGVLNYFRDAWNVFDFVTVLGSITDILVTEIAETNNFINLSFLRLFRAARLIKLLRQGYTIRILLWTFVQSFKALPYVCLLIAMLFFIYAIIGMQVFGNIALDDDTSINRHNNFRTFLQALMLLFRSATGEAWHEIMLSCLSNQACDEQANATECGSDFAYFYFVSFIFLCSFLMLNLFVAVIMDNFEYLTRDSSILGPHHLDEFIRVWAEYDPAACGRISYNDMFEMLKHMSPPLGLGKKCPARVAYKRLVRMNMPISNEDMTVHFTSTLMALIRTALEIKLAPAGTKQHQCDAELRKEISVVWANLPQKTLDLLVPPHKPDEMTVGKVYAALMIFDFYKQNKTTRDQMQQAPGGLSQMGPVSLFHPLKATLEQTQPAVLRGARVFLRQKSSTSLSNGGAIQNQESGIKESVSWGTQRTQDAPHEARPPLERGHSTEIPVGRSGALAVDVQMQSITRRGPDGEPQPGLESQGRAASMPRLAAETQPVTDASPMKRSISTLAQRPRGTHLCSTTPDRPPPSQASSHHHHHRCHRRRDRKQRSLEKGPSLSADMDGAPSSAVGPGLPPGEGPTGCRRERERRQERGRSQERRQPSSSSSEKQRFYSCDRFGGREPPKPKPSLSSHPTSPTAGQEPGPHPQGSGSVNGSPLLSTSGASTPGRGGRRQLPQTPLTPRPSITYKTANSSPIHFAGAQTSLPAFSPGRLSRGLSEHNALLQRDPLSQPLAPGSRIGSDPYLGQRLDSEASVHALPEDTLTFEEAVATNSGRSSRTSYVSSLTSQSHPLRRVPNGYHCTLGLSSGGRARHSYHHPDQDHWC
N-type (CaV2.2) Ca2+ channel (α1B with β2a and α2δ) in HEK293 cells (human; rat), sequence (P54290 25-1091, stated change not applied, chain 3 of 3, other chains not shown, further chain): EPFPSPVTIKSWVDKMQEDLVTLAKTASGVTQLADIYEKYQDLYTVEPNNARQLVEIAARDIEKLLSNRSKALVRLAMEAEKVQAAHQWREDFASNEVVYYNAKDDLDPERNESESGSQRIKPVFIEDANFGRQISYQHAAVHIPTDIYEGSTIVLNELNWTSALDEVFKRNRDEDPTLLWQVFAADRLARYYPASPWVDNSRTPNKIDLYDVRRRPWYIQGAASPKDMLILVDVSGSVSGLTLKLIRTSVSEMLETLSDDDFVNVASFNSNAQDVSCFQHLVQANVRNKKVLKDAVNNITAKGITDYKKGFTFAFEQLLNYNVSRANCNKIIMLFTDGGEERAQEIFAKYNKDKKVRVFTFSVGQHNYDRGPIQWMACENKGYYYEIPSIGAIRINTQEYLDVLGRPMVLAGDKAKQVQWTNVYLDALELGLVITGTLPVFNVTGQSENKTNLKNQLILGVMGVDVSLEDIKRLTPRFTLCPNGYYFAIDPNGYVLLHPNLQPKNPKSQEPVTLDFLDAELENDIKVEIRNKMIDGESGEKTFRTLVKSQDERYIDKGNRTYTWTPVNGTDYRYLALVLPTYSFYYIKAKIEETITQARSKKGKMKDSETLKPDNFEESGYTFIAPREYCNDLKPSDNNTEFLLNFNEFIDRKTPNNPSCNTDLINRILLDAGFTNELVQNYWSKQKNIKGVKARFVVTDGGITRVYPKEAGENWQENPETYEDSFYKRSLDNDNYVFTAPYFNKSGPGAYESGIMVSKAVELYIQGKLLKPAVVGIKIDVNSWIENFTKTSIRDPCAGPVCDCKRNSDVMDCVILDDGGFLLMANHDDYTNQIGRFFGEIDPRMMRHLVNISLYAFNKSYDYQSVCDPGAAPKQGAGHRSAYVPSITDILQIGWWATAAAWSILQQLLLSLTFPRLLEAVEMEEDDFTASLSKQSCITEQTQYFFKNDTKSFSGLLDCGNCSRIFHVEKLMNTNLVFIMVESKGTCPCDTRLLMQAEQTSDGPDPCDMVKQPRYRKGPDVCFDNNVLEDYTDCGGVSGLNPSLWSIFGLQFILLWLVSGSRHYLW

I-IIB-YFP (human), sequence (Q00975 357-482): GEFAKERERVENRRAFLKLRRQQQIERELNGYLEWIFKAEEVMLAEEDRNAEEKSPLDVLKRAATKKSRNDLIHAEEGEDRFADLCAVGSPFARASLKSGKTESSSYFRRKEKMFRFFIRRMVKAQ
I-IIC-CFP (rabbit), sequence (P15381 436-554): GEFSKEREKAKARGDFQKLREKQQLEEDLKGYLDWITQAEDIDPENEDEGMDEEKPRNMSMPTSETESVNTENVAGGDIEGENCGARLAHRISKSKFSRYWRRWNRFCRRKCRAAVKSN
I-IIC-YFP (rabbit), sequence (P15381 436-554): as above

Substance: NTC-YFP (from UniProt P15381 1-53)
- Kd,EFF relative to NTB/I-IIB (I-IIC-CFP (rabbit)): > 10 fold

Substance: pGADT7 (empty vector; the isolated GAL4 activating domain itself) (from UniProt P04386 768-881)
- Filter Lift Assay (%) [1]: 9.18%
- Filter Lift Assay (%) [2]: 32.2%
- Filter Lift Assay (%) (NTB(1-44)-pGBKT7 (human) [3]): 47.9%
- High Stringency (%) [4]: 18.7%
- High Stringency (%) [5]: 8.44%
- High Stringency (%) [6]: 2.11%
- High Stringency (%) (NTB(1-44)-pGBKT7 (human) [7]): 0.98%

Substance: NTB-CFP (from UniProt Q00975 1-95)
- Kd,EFF relative to NTB/I-IIB (I-IIC-YFP (rabbit)): > 10 fold

More lines, now with the values ahead:

- Kd,EFF relative to NTB/I-IIB (I-IIB-YFP (human) [8]): > 10 fold
- Kd,EFF relative to NTB/I-IIB (I-IIB-YFP (human) [9]): 8 fold
Substance: NTC-CFP (from UniProt P15381 1-53)

- W(∞), fraction of channels residing in the willing configuration at steady state, 0 mV (compound-state analysis) [10]: 0.6
- τ, time-constant with which the steady state is achieved, 0 mV (compound-state analysis) [10]: 60 ms
Substance: Gβγ (G protein β1 and γ2 subunits coexpressed) (from UniProt P62871 2-340; P63212 2-68)
